B1: Tyrosine-protein kinase ZAP-70 (Homo sapiens), P43403 (parent)
chain: MPDPAAHLPFFYGSISRAEAEEHLKLAGMADGLFLLRQCLRSLGGYVLSLVHDVRFHHFPIERQLNGTYAIAGGKAHCGPAELCEFYSRDPDGLPCNLRKPCNRPSGLEPQPGVFDCLRDAMVRDYVRQTWKLEGEALEQAIISQAPQVEKLIATTAHERMPWYHSSLTREEAERKLYSGAQTDGKFLLRPRKEQGTYALSLIYGKTVYHYLISQDKAGKYCIPEGTKFDTLWQLVEYLKLKADGLIYCLKEACPNSSASNASGAAAPTLPAHPSTLTHPQRRIDTLNSDGYTPEPARITSPDKPRPMPMDTSVYESPYSDPEELKDKKLFLKRDNLLIADIELGCGNFGSVRQGVYRMRKKQIDVAIKVLKQGTEKADTEEMMREAQIMHQLDNPYIVRLIGVCQAEALMLVMEMAGGGPLHKFLVGKREEIPVSNVAELLHQVSMGMKYLEEKNFVHRDLAARNVLLVNRHYAKISDFGLSKALGADDSYYTARSAGKWPLKWYAPECINFRKFSSRSDVWSYGVTMWEALSYGQKPYKKMKGPEVMAFIEQGKRMECPPECPPELYALMSDCWIYKWEDRPDFLTVEQRMRACYYSLASKVEGPPGSTQKAEAACA

Variants of: B1
Details: with ubs3b_mouse Ubash3b

Row | effect of a mutation on the interaction | Variant
1 | disrupting interaction | Y319F
